For assay [1], the target named is cFN^ΔRGD (mouse) (UniProt P11276).
Assay [2] has as its target cFN^RGE (mouse), P11276.

cFN^RGE (mouse), P11276, sequence (P11276 33-2477): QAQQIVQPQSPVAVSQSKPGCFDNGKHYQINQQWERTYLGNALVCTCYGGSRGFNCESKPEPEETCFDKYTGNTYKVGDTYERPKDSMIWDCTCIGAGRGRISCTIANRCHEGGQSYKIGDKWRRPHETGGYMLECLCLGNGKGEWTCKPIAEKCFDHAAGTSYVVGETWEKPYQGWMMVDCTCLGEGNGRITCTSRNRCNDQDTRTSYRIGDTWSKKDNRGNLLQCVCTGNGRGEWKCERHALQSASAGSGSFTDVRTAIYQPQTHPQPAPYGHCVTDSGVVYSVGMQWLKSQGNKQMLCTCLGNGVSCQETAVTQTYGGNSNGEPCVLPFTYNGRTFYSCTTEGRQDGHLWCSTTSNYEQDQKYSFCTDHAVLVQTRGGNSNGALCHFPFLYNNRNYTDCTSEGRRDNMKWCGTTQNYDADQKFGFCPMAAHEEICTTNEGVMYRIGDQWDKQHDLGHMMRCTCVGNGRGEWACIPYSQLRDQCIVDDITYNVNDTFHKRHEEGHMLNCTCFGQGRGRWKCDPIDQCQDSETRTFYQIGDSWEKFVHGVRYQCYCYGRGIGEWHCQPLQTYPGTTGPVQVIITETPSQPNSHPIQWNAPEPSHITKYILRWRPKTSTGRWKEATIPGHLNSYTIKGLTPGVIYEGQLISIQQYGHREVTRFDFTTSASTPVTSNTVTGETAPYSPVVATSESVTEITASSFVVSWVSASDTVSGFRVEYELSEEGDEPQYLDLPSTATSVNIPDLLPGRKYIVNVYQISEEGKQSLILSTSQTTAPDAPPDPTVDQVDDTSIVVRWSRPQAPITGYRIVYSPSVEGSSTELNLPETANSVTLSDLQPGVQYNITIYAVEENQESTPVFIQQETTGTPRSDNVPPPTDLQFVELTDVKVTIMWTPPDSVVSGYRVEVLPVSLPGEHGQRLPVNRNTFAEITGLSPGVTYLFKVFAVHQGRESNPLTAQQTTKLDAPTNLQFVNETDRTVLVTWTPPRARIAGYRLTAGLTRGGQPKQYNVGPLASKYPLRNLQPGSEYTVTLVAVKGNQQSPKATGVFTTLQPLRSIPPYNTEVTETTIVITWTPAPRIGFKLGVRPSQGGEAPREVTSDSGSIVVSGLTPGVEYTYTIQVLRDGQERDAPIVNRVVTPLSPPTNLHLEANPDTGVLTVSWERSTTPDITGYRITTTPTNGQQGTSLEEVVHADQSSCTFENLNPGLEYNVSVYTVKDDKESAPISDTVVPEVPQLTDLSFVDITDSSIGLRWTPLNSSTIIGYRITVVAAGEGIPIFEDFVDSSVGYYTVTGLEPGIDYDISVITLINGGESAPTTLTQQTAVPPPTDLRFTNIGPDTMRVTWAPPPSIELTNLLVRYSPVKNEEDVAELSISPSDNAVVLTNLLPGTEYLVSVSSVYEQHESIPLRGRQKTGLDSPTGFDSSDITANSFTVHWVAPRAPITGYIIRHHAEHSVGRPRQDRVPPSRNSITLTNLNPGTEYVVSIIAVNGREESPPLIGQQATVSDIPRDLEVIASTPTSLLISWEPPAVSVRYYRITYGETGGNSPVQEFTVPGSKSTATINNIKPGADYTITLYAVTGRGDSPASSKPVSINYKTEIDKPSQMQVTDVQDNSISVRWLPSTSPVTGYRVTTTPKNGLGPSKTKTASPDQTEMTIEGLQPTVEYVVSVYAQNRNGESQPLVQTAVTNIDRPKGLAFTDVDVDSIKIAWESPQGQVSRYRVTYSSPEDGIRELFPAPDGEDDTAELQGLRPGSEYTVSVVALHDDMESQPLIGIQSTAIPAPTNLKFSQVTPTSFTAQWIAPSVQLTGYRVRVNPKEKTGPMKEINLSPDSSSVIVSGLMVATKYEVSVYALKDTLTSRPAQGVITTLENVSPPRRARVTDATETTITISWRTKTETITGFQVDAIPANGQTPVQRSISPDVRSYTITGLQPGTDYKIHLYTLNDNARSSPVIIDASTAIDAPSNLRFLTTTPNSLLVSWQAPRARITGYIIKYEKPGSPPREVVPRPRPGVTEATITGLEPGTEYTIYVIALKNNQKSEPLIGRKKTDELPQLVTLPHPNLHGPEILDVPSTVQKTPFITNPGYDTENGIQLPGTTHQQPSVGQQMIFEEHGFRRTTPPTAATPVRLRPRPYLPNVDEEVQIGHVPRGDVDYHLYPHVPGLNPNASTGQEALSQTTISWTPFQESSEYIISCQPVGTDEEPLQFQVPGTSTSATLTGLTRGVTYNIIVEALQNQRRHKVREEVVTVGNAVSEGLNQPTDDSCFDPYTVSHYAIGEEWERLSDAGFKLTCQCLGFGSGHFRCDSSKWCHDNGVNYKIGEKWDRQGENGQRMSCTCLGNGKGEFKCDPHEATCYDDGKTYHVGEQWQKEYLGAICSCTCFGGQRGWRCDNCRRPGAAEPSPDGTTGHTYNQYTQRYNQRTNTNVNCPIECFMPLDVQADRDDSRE

The molecule “α5β1 integrin on pKO-β1 fibroblasts (from UniProt P11688 45-1053; P09055 21-798) (receptor)” had a spreading area of the adherent fibroblasts on the purified cFN variant in assay [1] of 136 µm^2.

B1: α5β1 integrin on pKO-β1 fibroblasts, P11688 45-1053; P09055 21-798 (receptor)
chain 1: FNLDAEAPAVLSGPPGSLFGFSVEFYRPGRDGVSVLVGAPKANTSQPGVLQGGAVYVCPWGTSPIQCTTIQFDSKGSRILESSLYSAKGEEPVEYKSLQWFGATVRAHGSSILACAPLYSWRTEKDPQNDPVGTCYLSTENFTRILEYAPCRSDFGSAAGQGYCQGGFSAEFTKTGRVVLGGPGSYFWQGQILSATQEQISESYYPEYLINPVQGQLQTRQASSVYDDSYLGYSVAVGEFSGDDTEDFVAGVPKGNLTYGYVTVLNGSDIHSLYNVSGEQMASYFGYAVAATDTNGDGLDDLLVGAPLLMERTADGRPQEVGRVYIYLQRPAGIDPTPTLTLTGQDEFSRFGSSLTPLGDLDQDGYNDVAIGAPFGGEAQQGVVFIFPGGPGGLSTKPSQVLQPLWAAGRTPDFFGSALRGGRDLDGNGYPDLIVGSFGVDKALVYRGRPIISASASLTIFPSMFNPEERSCSLEGNPVSCINLSFCLNASGKHVPNSIGFEVELQLDWQKQKGGVRRALFLTSKQATLTQTLLIQNGAREDCREMKIYLRNESEFRDKLSPIHIALNFSLDPKAPMDSHGLRPVLHYQSKSRIEDKAQILLDCGEDNICVPDLQLDVYGEKKHVYLGDKNALNLTFHAQNLGEGGAYEAELRVTAPLEAEYSGLVRHPGNFSSLSCDYFAVNQSRQLVCDLGNPMKAGTSLWGGLRFTVPHLQDTKKTIQFDFQILSKNLNNSQSNVVSFPLSVEAQAQVSLNGVSKPEAVIFPVSDWNPQDQPQKEEDLGPAVHHVYELINQGPSSISQGVLELSCPQALEGQQLLYVTKVTGLSNCTSNYTPNSQGLELDPETSPHHLQKREAPGRSSTASGTQVLKCPEAKCFRLRCEFGPLHRQESRSLQLHFRVWAKTFLQREYQPFSLQCEAVYEALKMPYQILPRQLPQKKLQVATAVQWTKAEGSNGVPLWIIILAILFGLLLLGLLIYVLYKLGFFKRSLPYGTAMEKAQLKPPATSDA
chain 2: QTDKNRCLKANAKSCGECIQAGPNCGWCTNTTFLQEGMPTSARCDDLEALKKKGCQPSDIENPRGSQTIKKNKNVTNRSKGMAEKLRPEDITQIQPQQLLLKLRSGEPQKFTLKFKRAEDYPIDLYYLMDLSYSMKDDLENVKSLGTDLMNEMRRITSDFRIGFGSFVEKTVMPYISTTPAKLRNPCTSEQNCTSPFSYKNVLSLTDRGEFFNELVGQQRISGNLDSPEGGFDAIMQVAVCGSLIGWRNVTRLLVFSTDAGFHFAGDGKLGGIVLPNDGQCHLENNVYTMSHYYDYPSIAHLVQKLSENNIQTIFAVTEEFQPVYKELKNLIPKSAVGTLSGNSSNVIQLIIDAYNSLSSEVILENSKLPDGVTINYKSYCKNGVNGTGENGRKCSNISIGDEVQFEISITANKCPNKESETIKIKPLGFTEEVEVVLQFICKCNCQSHGIPASPKCHEGNGTFECGACRCNEGRVGRHCECSTDEVNSEDMDAYCRKENSSEICSNNGECVCGQCVCRKRDNTNEIYSGKFCECDNFNCDRSNGLICGGNGVCRCRVCECYPNYTGSACDCSLDTGPCLASNGQICNGRGICECGACKCTDPKFQGPTCETCQTCLGVCAEHKECVQCRAFNKGEKKDTCAQECSHFNLTKVESREKLPQPVQVDPVTHCKEKDIDDCWFYFTYSVNGNNEAIVHVVETPDCPTGPDIIPIVAGVVAGIVLIGLALLLIWKLLMIIHDRREFAKFEKEKMNAKWDTGENPIYKSAVTTVVNPKYEGK
As for B1, in assay [2], the spreading area of the few adherent fibroblasts on the purified cFN variant came to 419 µm^2.

(Values after paper PMC7644020.)
